Among the targets are PDLIM1, O00151; Inadl_5, Q8NI35; TJP1_3, Q07157; LIMK2, P53671; FRMPD2_3, Q68DX3; DLG1_2, Q12959; DLG4_2, P78352; Inadl_3, Q8NI35.
Holding throughout (test): holdup assay
Parameters in all cases: key: below the threshold = too weak to quantify, mostly under pKd 3.1 to 4
What all share (conditions): plain residues with an end cap or a label only (N-terminal biotin on a linker: ado-ado)

The next test deals with T1, RADIL, Q96JH8.
T1 sequence (Q96JH8 971-1071, limits assumed, looked up): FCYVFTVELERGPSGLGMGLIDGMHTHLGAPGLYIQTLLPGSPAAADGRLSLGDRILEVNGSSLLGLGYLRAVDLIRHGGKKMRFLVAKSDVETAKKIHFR

A further test deals with T2, DVL3, Q92997.
T2 sequence (Q92997 244-331, limits assumed, looked up): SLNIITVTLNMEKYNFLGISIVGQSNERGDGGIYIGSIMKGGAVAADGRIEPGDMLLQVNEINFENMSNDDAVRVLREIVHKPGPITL

A further test has as its target T3, PDZD2_2, O15018.
T3 sequence (O15018 329-429, limits assumed, looked up): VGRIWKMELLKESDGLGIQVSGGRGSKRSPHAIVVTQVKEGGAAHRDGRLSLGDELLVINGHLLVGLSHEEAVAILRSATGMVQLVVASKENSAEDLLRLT

The target in the next test is T4, HTRA4, P83105.
T4 sequence (P83105 378-476, limits assumed, looked up): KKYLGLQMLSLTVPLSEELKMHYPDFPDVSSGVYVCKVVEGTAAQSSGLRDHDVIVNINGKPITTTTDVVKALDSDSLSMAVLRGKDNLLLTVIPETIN

Another test concerns the target T5, LNX2_3, Q8N448.
T5 sequence (Q8N448 463-564, limits assumed, looked up): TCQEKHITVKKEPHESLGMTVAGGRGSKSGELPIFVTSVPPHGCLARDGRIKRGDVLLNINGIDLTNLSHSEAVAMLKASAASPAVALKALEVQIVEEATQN

The next test concerns the target T6, MPP6, Q9NZW5.
T6 sequence (Q9NZW5 125-219, limits assumed, looked up): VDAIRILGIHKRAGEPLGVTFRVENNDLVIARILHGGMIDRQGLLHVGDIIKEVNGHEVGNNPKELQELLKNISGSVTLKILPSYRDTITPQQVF

Another test addresses T7, RAPGEF6, Q8TEU7.
T7 sequence (Q8TEU7 525-625, limits assumed, looked up): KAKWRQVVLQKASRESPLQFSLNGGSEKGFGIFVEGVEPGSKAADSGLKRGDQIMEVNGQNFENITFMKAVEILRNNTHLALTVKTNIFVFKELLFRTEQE

The target of a further test is T8, APBA2_2, Q99767.
T8 sequence (Q99767 654-744, limits assumed, looked up): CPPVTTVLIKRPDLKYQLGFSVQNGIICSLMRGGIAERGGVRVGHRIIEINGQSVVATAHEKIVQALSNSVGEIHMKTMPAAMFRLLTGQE

Another test has as its target T9, NHERF3_1, Q5T2W1.
T9 sequence (Q5T2W1 4-100, limits assumed, looked up): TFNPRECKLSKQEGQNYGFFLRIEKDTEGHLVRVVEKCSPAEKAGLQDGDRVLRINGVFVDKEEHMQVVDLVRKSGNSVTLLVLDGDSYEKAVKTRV

The target in another test is T10, SNTB1, Q13884.
T10 sequence (Q13884 107-205, limits assumed, looked up): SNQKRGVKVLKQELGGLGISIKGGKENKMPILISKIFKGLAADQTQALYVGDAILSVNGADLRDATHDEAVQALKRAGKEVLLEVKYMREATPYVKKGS

A further test deals with T11, ARHGAP21, Q5T5U3.
T11 sequence (Q5T5U3 45-169, limits assumed, looked up): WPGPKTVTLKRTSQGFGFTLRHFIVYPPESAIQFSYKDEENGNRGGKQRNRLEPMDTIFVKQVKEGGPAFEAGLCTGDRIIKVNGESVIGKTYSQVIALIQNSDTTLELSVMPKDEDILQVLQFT

The target of another test is T12, DLG3_2, Q92796.
T12 sequence (Q92796 221-321, limits assumed, looked up): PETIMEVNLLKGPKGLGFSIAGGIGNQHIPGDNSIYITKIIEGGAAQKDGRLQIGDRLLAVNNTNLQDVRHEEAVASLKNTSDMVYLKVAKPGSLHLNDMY

Another test concerns the target T13, TIAM2, Q8IVF5.
T13 sequence (Q8IVF5 885-986, limits assumed, looked up): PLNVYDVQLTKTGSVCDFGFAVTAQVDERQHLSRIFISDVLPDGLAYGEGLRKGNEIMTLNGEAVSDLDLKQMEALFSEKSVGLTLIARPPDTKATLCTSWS

For a further test, the target named is T14, SNTG1, Q9NSN8.
T14 sequence (Q9NSN8 52-150, limits assumed, looked up): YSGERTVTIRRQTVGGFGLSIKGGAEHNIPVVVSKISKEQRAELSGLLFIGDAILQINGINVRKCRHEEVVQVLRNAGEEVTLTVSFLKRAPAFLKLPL

Sequence of DLG1_2, Q12959 (Q12959 314-412): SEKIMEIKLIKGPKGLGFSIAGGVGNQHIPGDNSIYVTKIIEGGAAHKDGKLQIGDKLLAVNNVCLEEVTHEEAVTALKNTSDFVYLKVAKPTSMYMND
Sequence of Inadl_3, Q8NI35 (Q8NI35 359-469): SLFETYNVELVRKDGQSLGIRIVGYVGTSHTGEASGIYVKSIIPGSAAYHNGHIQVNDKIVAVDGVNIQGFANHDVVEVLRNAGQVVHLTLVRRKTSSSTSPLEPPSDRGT
Sequence of Inadl_5, Q8NI35 (Q8NI35 673-780): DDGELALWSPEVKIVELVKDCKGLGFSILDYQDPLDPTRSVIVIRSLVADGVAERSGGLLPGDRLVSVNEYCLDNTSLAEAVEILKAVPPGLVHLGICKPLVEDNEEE
Sequence of DLG4_2, P78352 (P78352 155-259): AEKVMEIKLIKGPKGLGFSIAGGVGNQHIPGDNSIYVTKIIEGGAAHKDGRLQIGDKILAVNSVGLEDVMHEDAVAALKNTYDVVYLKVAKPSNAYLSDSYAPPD
Sequence of FRMPD2_3, Q68DX3 (Q68DX3 1073-1166): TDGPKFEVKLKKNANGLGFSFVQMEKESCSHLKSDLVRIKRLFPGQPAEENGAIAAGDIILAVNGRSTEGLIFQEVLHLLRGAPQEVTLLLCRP
Sequence of PDLIM1, O00151 (O00151 1-87): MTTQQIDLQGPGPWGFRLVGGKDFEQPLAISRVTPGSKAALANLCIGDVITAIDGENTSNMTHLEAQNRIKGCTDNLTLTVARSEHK
Sequence of TJP1_3, Q07157 (Q07157 416-512): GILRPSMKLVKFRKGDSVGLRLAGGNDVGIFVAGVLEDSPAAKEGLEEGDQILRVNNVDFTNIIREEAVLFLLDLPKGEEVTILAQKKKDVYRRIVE
Sequence of LIMK2, P53671 (P53671 143-248): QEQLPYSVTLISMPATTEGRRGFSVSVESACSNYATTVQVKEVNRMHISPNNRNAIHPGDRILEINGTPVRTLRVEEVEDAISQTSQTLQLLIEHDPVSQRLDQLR

B1: SLC1A7, O00341 (peptide)
chain: IQISELETNV
The pKd is the negative decadic logarithm of the Kd, by convention in mol/L. Consider B1, for which the pKd entry is “below the threshold” with RADIL, Q96JH8; “below the threshold” with PDLIM1, O00151; “below the threshold” with DVL3, Q92997; “below the threshold” in the test with Inadl_5, Q8NI35; “below the threshold” in the test with TJP1_3, Q07157; 4.97 with PDZD2_2, O15018. Also, the pKd entry with LIMK2, P53671 is “below the threshold”; in the test with HTRA4, P83105 it was 3.9; with LNX2_3, Q8N448, “below the threshold”; with MPP6, Q9NZW5 it was “below the threshold”; with RAPGEF6, Q8TEU7, “below the threshold”; with APBA2_2, Q99767, “below the threshold”. For the same molecule, the pKd with NHERF3_1, Q5T2W1 was 3.82; in the test with FRMPD2_3, Q68DX3, “below the threshold”; in the test with SNTB1, Q13884 it was 5.37; with ARHGAP21, Q5T5U3, 3.98; with DLG1_2, Q12959, 4.91; with DLG3_2, Q92796, 4.66. For the same molecule, the pKd was 4.67 with DLG4_2, P78352; 4 with Inadl_3, Q8NI35; “below the threshold” in the test with TIAM2, Q8IVF5; 5.26 in the test with SNTG1, Q9NSN8.

B2: ZNF599, Q96NL3 (peptide)
chain: THHRKIHTRV
As for B2, the pKd with RADIL, Q96JH8 is 3.62; with PDLIM1, O00151 it was “below the threshold”; with DVL3, Q92997, “below the threshold”; in the test with Inadl_5, Q8NI35 it was 3.49; in the test with TJP1_3, Q07157 it was “below the threshold”; with PDZD2_2, O15018 it was “below the threshold”. Besides, the pKd result with LIMK2, P53671 was “below the threshold”; with HTRA4, P83105, “below the threshold”; with LNX2_3, Q8N448, 3.51; with MPP6, Q9NZW5, “below the threshold”; with RAPGEF6, Q8TEU7, “below the threshold”; in the test with APBA2_2, Q99767, 3.49. The pKd with NHERF3_1, Q5T2W1 was determined as 3.63; with FRMPD2_3, Q68DX3, 3.53; in the test with SNTB1, Q13884, 4.36; with ARHGAP21, Q5T5U3 it was 4.01; with DLG1_2, Q12959 it was 5.53; with DLG3_2, Q92796, 5.26. The pKd is 5.64 with DLG4_2, P78352; “below the threshold” in the test with Inadl_3, Q8NI35; 3.57 in the test with TIAM2, Q8IVF5; 3.61 in the test with SNTG1, Q9NSN8.

B3: FZD1, Q9UP38 (peptide)
chain: TNSKQGETTV
With B3, the pKd with RADIL, Q96JH8 is 3.63; with PDLIM1, O00151 it was “below the threshold”; in the test with DVL3, Q92997, 3.61; with Inadl_5, Q8NI35 it was 3.5; in the test with TJP1_3, Q07157 it was 3.69; in the test with PDZD2_2, O15018, 3.93. For the same molecule, the negative-log Kd (pKd) result is “below the threshold” with LIMK2, P53671; 3.79 with HTRA4, P83105; “below the threshold” with LNX2_3, Q8N448; “below the threshold” with MPP6, Q9NZW5; 3.54 with RAPGEF6, Q8TEU7; “below the threshold” with APBA2_2, Q99767. The pKd result in the test with NHERF3_1, Q5T2W1 was “below the threshold”; with FRMPD2_3, Q68DX3 it was 3.74; with SNTB1, Q13884, 4.72; with ARHGAP21, Q5T5U3, 3.93; with DLG1_2, Q12959, 5.09; with DLG3_2, Q92796 it was 4.64. Besides, the pKd with DLG4_2, P78352 was 4.94; with Inadl_3, Q8NI35 it was “below the threshold”; with TIAM2, Q8IVF5, “below the threshold”; in the test with SNTG1, Q9NSN8, 4.31.

B4: PLCB2, Q00722 (peptide)
chain: AKADAQESRL
Consider B4, for which the pKd entry with RADIL, Q96JH8 is listed as “below the threshold”; in the test with PDLIM1, O00151, “below the threshold”; with DVL3, Q92997, “below the threshold”; in the test with Inadl_5, Q8NI35, “below the threshold”; in the test with TJP1_3, Q07157 it was “below the threshold”; with PDZD2_2, O15018 it was “below the threshold”. Besides, the pKd result with LIMK2, P53671 is “below the threshold”; with HTRA4, P83105 it was 3.85; with LNX2_3, Q8N448 it was “below the threshold”; in the test with MPP6, Q9NZW5 it was “below the threshold”; in the test with RAPGEF6, Q8TEU7, “below the threshold”; with APBA2_2, Q99767, “below the threshold”. In addition, the pKd was 5.58 with NHERF3_1, Q5T2W1; “below the threshold” with FRMPD2_3, Q68DX3; 4.43 with SNTB1, Q13884; “below the threshold” with ARHGAP21, Q5T5U3; “below the threshold” in the test with DLG1_2, Q12959; “below the threshold” in the test with DLG3_2, Q92796. Also, the pKd result with DLG4_2, P78352 is reported as “below the threshold”; in the test with Inadl_3, Q8NI35, “below the threshold”; with TIAM2, Q8IVF5, “below the threshold”; in the test with SNTG1, Q9NSN8, “below the threshold”.

B5: CD226, Q15762 (peptide)
chain: TFSRRPKTRV
Regarding B5, the pKd with RADIL, Q96JH8 is 3.57; with PDLIM1, O00151, “below the threshold”; in the test with DVL3, Q92997, “below the threshold”; with Inadl_5, Q8NI35 it was “below the threshold”; with TJP1_3, Q07157, “below the threshold”; with PDZD2_2, O15018, “below the threshold”. The pKd result with LIMK2, P53671 was “below the threshold”; in the test with HTRA4, P83105, 4.01; with LNX2_3, Q8N448, 3.61; in the test with MPP6, Q9NZW5, “below the threshold”; with RAPGEF6, Q8TEU7 it was “below the threshold”; with APBA2_2, Q99767, “below the threshold”. Also, the pKd result is “below the threshold” with NHERF3_1, Q5T2W1; “below the threshold” with FRMPD2_3, Q68DX3; “below the threshold” with SNTB1, Q13884; 4.06 in the test with ARHGAP21, Q5T5U3; “below the threshold” with DLG1_2, Q12959; “below the threshold” with DLG3_2, Q92796. Further, the pKd is 3.56 in the test with DLG4_2, P78352; “below the threshold” with Inadl_3, Q8NI35; “below the threshold” in the test with TIAM2, Q8IVF5; “below the threshold” with SNTG1, Q9NSN8.
